Patent US6998124 (GlaxoSmithKline, dated 2006)

Columns and labels:
[1] = target: T1, human erythropoietin receptor on the cell surface (human, UniProt P19235 25-508); experiment: competition with 1 nM 125I-labeled Epo for binding to UT7-Epo cells, 5 hrs at 4 C, cell-bound radioactivity counted; blocked ligand: Epo
T1 construct: whole, on cells; also called wild type EpoR on UT7-Epo cells; cell surface erythropoietin receptors
T1 sequence (looked up): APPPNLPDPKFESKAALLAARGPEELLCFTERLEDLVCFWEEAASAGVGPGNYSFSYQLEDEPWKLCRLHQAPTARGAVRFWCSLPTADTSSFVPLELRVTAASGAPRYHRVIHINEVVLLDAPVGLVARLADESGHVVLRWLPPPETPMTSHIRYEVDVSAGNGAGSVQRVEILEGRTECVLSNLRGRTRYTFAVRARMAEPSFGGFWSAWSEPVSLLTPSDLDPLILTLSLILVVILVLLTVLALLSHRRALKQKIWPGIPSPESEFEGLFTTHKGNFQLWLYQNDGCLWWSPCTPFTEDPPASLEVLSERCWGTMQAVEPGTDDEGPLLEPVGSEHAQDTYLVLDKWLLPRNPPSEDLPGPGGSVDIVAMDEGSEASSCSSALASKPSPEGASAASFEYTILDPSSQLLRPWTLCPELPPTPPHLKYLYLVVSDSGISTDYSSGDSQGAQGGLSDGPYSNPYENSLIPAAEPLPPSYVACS
Description: Following 5 hrs incubation at 4° C., the cells were spun through horse serum, frozen, and the pellets clipped off and radioactivity counted. […] Hematocrit was measured following a single i.v. dose of Hz3G9 at 0.1, 0.5, 1 and 5 mg/kg into cynomolgus macaques.

[2] = target: T2, soluble dimeric erythropoietin receptor (EpoRFc) (human, UniProt P19235 25-250); experiment: BIAcore, calculated from kass and kdiss; soluble dimeric EpoRFc
T2 construct: also called Epo-Rec-Fc; not shown: Fc part
T2 sequence (looked up): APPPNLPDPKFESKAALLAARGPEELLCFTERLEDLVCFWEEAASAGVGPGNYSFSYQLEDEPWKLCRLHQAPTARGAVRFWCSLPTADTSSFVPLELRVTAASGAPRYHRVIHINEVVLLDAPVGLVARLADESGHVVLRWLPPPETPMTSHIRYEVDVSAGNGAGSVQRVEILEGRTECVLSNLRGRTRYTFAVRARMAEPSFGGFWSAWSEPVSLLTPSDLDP
Description: (§1) EpoR or EpoRFc diluted in HBS buffer at 0.25–6 ug/ml was then injected for 120 s followed by buffer flow for 240 s and regeneration of the sensor chip surface with an injection of 15 ul 0.1 M phosphoric acid. BIAcore software was used for association and dissociation-phase analysis.

[3] = target: T2, soluble dimeric erythropoietin receptor …; experiment: BIAcore, mAb captured on rabbit anti-mouse Fc surface, EpoRFc injected at 0.25-6 ug/ml; soluble dimeric EpoRFc
Description: as §1

- IC50 (read off the curve) [1]: ~1 ng/mL
- Kd [2]: 600 pM
- koff [3]: 0.0019 s⁻¹
- kon [3]: 3e+06 M⁻¹ s⁻¹
B1: murine monoclonal antibody 3G9 (antibody, V domains shown)
VH: QVQLQQPGAELVKSGASVKLSCKASGSTFTSYWMHWVKQRPGRGLEWIGRIDPNSGGTKDNEKFKSKATLTVDKPSSTAYMQLSSLTSEDSAVYYCARETYYDSSFAYWGQGTLVTVSA
VL: DIVMTQSQKFMSTSVGDRVSVTCKASQNVGTNVAWYQQKPGQSPKALIYSASYRYSGVPDRFTGSGSGTDFTLTISNVQSEDLAEYFCQQYNSYPLTFGAGTKLELKR
modifications: amino terminus of the heavy chain blocked with pyroglutamic acid
notes: Mouse hybridoma antibody; also called 3G9 mAb; Mab 3G9
